We go through eleven molecules from patent US20160280799A1 (Ablynx, published 2016).

For assay [1], the target named is T1, active catalytic domain of MMP 1 (UniProt P03956 100-269).
T1 construct: domain: catalytic domain
T1 sequence (looked up): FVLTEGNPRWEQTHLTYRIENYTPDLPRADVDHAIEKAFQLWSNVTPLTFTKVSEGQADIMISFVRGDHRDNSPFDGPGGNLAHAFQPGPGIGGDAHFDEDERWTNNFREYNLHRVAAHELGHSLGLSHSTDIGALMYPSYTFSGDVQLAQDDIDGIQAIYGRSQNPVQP
As to the kind of experiment: dot blot: periplasmic extract on 50 ng catalytic domain immobilized on Hybond C-extra, anti-c-myc detection.

For assay [2], the target named is T2, active catalytic domain of MMP 7 (UniProt P09237 95-267).
T2 construct: domain: catalytic domain
T2 sequence (looked up): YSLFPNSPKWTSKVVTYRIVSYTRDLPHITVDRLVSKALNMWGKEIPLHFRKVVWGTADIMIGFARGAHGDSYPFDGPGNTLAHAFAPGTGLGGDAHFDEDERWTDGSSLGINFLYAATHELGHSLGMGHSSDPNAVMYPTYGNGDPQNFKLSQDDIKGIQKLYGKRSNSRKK
Described as above.

For assay [3], the target named is active catalytic domain of MMP 13 (UniProt P45452 104-274). The description is as above.
Assay [4] deals with T3, active catalytic domain of MMP 9 (UniProt P14780 107-444).
T3 construct: domain: catalytic domain
T3 sequence (P14780 107-444 limits assumed): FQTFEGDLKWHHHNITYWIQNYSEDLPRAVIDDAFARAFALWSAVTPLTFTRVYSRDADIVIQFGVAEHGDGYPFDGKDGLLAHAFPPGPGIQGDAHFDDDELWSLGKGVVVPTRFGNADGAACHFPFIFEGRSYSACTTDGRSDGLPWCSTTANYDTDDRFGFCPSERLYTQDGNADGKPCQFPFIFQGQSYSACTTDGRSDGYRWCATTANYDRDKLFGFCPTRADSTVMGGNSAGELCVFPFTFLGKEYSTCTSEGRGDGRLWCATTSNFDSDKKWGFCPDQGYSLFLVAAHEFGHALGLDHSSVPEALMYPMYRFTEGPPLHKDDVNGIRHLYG
The description is as above.

The target in assay [5] is T4, active catalytic domain of MMP 3 (UniProt P08254 100-272).
T4 construct: domain: catalytic domain
T4 sequence (P08254 100-272 limits assumed): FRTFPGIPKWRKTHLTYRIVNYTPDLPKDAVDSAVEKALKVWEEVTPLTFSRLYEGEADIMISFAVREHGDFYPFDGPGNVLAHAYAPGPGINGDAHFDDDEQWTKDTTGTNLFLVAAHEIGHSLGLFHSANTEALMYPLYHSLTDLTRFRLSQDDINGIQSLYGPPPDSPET
The description is as above.

Assay [6] concerns the target T5, active catalytic domain of MMP 2 (UniProt P08253 110-450).
T5 construct: domain: catalytic domain
Described as above.

Assay [7] has as its target T6, human MMP-12 catalytic domain (human, UniProt P39900 106-263).
T6 construct: domain: catalytic domain; also called recombinant human catalytic domain of MMP12; human macrophage elastase
Nature of the assay: dot blot: periplasmic extract on 50 ng human MMP-12 catalytic domain on PVDF membrane, anti-c-myc detection.

Assay [8] concerns the target T7, human EGFR on cells (Her-14 mouse fibroblasts expressing human EGFR; A431 cells) (human, UniProt P00533 25-1210).
T7 construct: whole, on cells; also called EGF receptor
Nature of the assay: phage ELISA on Her-14 cells (mouse fibroblasts expressing human EGFR) against parental 3T3 cells, about 10^9 phage particles, anti-M13 gpVIII-HRP, OD 405nm.

Assay [9] has as its target T8, human TNF-alpha (human, UniProt P01375 77-233).
T8 construct: also called TNFα; biotinylated TNF-alpha
As to the kind of experiment: ELISA: biotinylated TNFα captured on neutravidin, detection R42; sample treated with pepsin for 60 min at pH 4.

The target in assay [10] is T8, human TNF-alpha. As to the kind of experiment: ELISA: biotinylated TNFα captured on neutravidin, detection R42; sample treated with pepsin for 60 min at pH 2.
Assay [11] deals with T8, human TNF-alpha. As to the kind of experiment: ELISA: biotinylated TNFα captured on neutravidin, detection R42; sample treated with pepsin for 60 min at pH 3.
Assay [12] deals with T8, human TNF-alpha. As to the kind of experiment: ELISA: biotinylated TNFα captured on neutravidin, detection R42.
Assay [13] concerns the target T6, human MMP-12 catalytic domain. As to the kind of experiment: binding implied by inhibition in the colorimetric MMP-12 assay; selected on active MMP-12 on nitrocellulose.

T8 sequence (P01375 77-233 limits assumed): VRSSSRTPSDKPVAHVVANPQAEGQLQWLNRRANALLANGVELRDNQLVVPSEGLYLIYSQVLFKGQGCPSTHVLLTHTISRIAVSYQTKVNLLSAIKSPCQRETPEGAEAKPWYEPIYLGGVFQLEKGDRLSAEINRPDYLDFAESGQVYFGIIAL
T6 sequence (P39900 106-263 limits assumed): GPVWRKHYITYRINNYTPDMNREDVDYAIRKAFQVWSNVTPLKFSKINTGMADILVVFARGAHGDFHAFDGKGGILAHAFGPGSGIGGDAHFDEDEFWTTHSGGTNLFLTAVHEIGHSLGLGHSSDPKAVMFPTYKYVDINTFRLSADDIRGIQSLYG
T5 sequence (P08253 110-450 limits assumed): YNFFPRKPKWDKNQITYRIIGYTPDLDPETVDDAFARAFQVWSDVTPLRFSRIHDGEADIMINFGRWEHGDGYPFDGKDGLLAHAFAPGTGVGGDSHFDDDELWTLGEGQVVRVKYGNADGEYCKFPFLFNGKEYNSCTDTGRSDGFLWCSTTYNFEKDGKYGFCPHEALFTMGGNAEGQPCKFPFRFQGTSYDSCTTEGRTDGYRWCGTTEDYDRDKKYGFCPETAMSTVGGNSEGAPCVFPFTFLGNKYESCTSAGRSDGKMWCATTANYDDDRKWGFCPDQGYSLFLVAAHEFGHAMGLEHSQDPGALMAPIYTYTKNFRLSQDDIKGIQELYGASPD

B1: MMP-12 P1-44 (VHH)
VHH: QVQLQESGGGLVQPGGSLRLSCAASGFTFNNHWLYWVRQAQGKGLEWVSAINPGGSTVYLDSVKGRFTISRGNTKNTLYLQMNSLKSEDTAVYYCTKAMAWATDWDEYDLWGQGTQVTVSS
For the molecule B1, the binding result in assay [1], in assay [2], in assay [3], in assay [4], in assay [5] and in assay [6] was “no binding” throughout. Besides, the binding result in [7] is on record as “binds”.

B2: EGFR-1.38 (VHH)
VHH: QVQLQDSGGGLVQAGDSLRLSCAASGRSFGGYAMGWFRQAPGKEREFVAAISWSGGSTYYADSLKGRFTISRDNAKNTVYLQMNSLKPEDTALYYCAAGLRPSPNYNHERSYDYWGQGTQVTVSS
Turning to B2, the binding result in assay [8] is “binds”.

B3: VHH#3E-His tag (VHH)
VHH: QVQLQESGGGLVQPGGSLRLSCAASGRTFSDHSGYTYTIGWFRQAPKEREFVARIYWSSGNTYYADSVKGRFAISRDIAKNTVDLTMNNLEPEDTAVYYCAARDGIPTSRSVESYNYWGQGTQVTVSS
notes: also called TNF3E; VHH TNF3E
Take B3: the “EC50 (read off the curve)” value with human TNF-alpha [9] was approximately 0.009 µg/mL; in the assay with human TNF-alpha [10], approximately 0.03 µg/mL; with human TNF-alpha [11], approximately 0.01 µg/mL; with human TNF-alpha [12], approximately 0.02 µg/mL.

B4: MMP-12 P1-41 (VHH)
VHH: QVQLQDSGGGLVRTGDSLRLSCVVFGGTISTYAMGWFRRAPGKEREFVAAIDASGGFTEYADSVRGRFRIARDNPLSAVYLQMNSLKPEDTAFYYCAADKDRDTVVRFTTTPNEYDYWGQGTQVTVSS
On to B4, for which the binding result in [1], in assay [2], in assay [3], in assay [4], in assay [5] and in assay [6] was “no binding” in each case. The binding result in assay [7] is on record as “binds”.

B5: MMP-12 P5-29 (VHH)
VHH: QVQLQESGGGLVQAGGSLRLSCAASGRTFTVYTTGWFRQAPGKEREFVAAIDWSGSSTYYTDSVKGRFTISRDNTKNTVYLQMNSLKPEDTAVYYCAARDAIVGVTDTSGYRYWGQGTQVTVSS
notes: also called clone P5-29
Take B5: the binding result in assay [13] is “binds”.

B6: MMP-12 P1-1 (VHH)
VHH: QVQLQESGGGLVQPGGSLRLSCVASGFTFSDYPMAWVRQAPGKGLEWISVINSGGVNTSYAASVKGRFTISRDNAKNTLFLQMNSLKPEDTAVYYCAKYSLKNEQYWRGQGTQVTVSS
In the case of B6, the binding result in assay [1], in [2], in assay [3], in assay [4], in [5] and in assay [6] was “no binding” in each case. In addition, the binding result in assay [7] is “binds”.

B7: MMP-12 P1-26 (VHH)
VHH: QVQLQESGGGLVRAGGSLRLSCVASGRTLSKYRMGWFRQFPGKERELVAEIEWKSSSTWYRDSVKGRFTISRDNAKNTVYLRMNSLKPEDTAVYYCAAATLGEPLVKYTYWGQGTQVTVSS
As for B7, the binding result in [1], in [2], in assay [3], in assay [4], in [5] and in [6] was “no binding” throughout. The binding result in assay [7] is recorded as “binds”.

B8: EGFR-B11 (VHH)
VHH: QVQLQDSGGGLVQAGGSLRLSCAASRFSSAQYAIGWFRQAPGKEREGVSYITFSGGPTGYADSVKGRFTVSRDNAKNTVYLQMNSLKPEDTAVYYCAARPYTRPGSMWVSSLYDNWGQGTQVTVSS
As for B8, the binding result in assay [8] is “binds”.

B9: EGFR-4.21 (VHH)
VHH: EVQLVESGGGLVQAGGSLRLSCAVSGRTFSSMGWFRQAPGKEREFVATINLSGDRTDYADSVKGRFTISRDNPKNTVYLQMDSLEPEDSAVYYCAGTSLYPSNLRYYTLPGTYADWGQGTQVTVSS
B9: in assay [8], the binding result is “binds”.

B10: EGFR-F11 (VHH)
VHH: QVQLQESGGRLVQAGGSLRLSCAASEHTFRGYAIGWFRQAPGKEREFVSSITYDGTLTNYADSVTGRFTISRDNAKNTVYLQMNSLKPEDTAVYVCAAGYSYRYTTLNQYDSWGQGTQVTVSS
As for B10, in assay [8], the binding result is listed as “binds”.

B11: EGFR-IIIa5 (VHH)
VHH: EVQLVESGGGLVQAGGSLRLSCTASGRTFSSYAMGWFRQTPGKEREFVAAITSSGGSTYYADSVKGRFTISRDNAKSTMYLQMDSLMLDDTSVYYCAADSSRPQYSDSALRRILSLSNSYPYWGQGTQVTVSS
As to B11, the binding result in assay [8] is given as “binds”.
